How the values were obtained:
[1] = tested on: STAT5 Y647; assay: Epo signaling: STAT5 phosphorylation by flow cytometry in transduced T cells; assay type: cell-based, human; conditions: for Epo signaling (pSTAT5) after JAK inhibitor: concentration that abrogated IL-2 signal
Method: To detect Epo signaling, cells were incubated in cytokine-free media for 2 hours before stimulated with Epo (0.01-10 IU/mL) at 37° C. for 15 minutes to 24 hours. In some experiments, cells were treated with 0.1-10 μM of ruxolitinib (Selleckchem) or 0.5-5 nM tofacitinib (Santa Cruz Biotechnology, Santa Cruz, CA) for 1 hour prior to Epo stimulation. […] In some experiments, the effects of human Epo were compared to those of murine Epo (Biolegend, San Diego, CA).

[2] = tested on: CD19+ Nalm6 ALL cells; assay: Xenograft: Nalm6-luciferase cells followed 2 days later by EpoRm-CAR T cells, with or without Epo; assay type: in vivo, NSG mice; conditions: 100 IU Epo i.p. 3 times a week for 2 weeks
Method: In another model to test anti-leukemic activity of T cells, Nalm6 cells transduced with luciferase were injected i.v. (5×10^5 cells per mouse), followed 2 days later by T cells expressing EpoRm-CAR (2×10^7 cells per mouse, i.v.), while control mice received no T cells; some mice received Epo (100 IU) 3 times per week i.p. Tumor cell load was determined with the Xenogen IVIS-200 System (Perkin Elmer, Waltham, MA) after injecting aqueous D-luciferin potassium salt (150 μg/g body weight; Perkin Elmer) i.p. Luminescence was analyzed with Living Image 3.0 software. Mice were euthanized when the luminescence reached 1×10^10 photons per second, or earlier if there were physical signs warranting euthanasia.

[3] = tested on: Epo; assay: Binding of biotinylated Epo to transduced Jurkat cells
Source text: Biotinylated Epo was visualized with streptavidin-PE (Jackson ImmunoResearch).

[4] = tested on: T lymphocytes; assay: T cell survival/recovery in culture with or without Epo and IL-2; assay type: cell-based, human
Method: To assess cell survival, T cells were cultured in absence of exogenous cytokines, with or without Epo (4-10 IU/mL) in a flat bottom 96-well or 24-well plate (Cellstar). For cell proliferation, T cells were co-cultured with target cells (OP-1 cells) at 1:1 effector-to-target (E:T) ratio in a flat bottom 96-well plate; Epo (10 IU/mL) was added every two days. Target cells, irradiated (100 Gy) or treated with Streck cell preservative (Streck Laboratories, Omaha, NE) to inhibit growth, were added at the beginning of the cultures, and every 7 days thereafter. In some experiments, low dose (10 IU/mL) or high dose (100 IU/mL) IL-2 was added to the culture as well. The number of GFP+ T cells was measured by flow cytometry.

[5] = tested on: Jurkat cells; assay: Jurkat cell growth curves; assay type: cell-based, human
[6] = tested on: T lymphocytes; assay: Cell cycle analysis (EdU DNA synthesis) after Epo stimulation; assay type: cell-based, human; conditions: exposure to Epo for 24 hours
Method: To determine the effect of Epo on cell cycle, cells were cultured in cytokine-free media for 3 days followed by stimulation with 10 IU/mL of Epo for 1 day. DNA synthesis was measured by Click-iT EdU AF647 Flow Cytometry Assay Kit (Thermo Fisher Scientific), and DNA content was measured with FxCycle Violet Stain (Thermo Fisher Scientific).

[7] = EpoRm-CAR T cells, Epo 10 IU/mL

**Q.** `N#CC[C@H](C1CCCC1)n1cc(-c2ncnc3[nH]ccc23)cn1` [ruxolitinib, reference compound] was tested. Which “Epo signaling (pSTAT5) after JAK inhibitor” value [1, 7] did it give?
**A.** no effect

**Q.** Which “Epo signaling (pSTAT5) after JAK inhibitor” value [1, 7] does the source give for `C[C@@H]1CCN(C(=O)CC#N)C[C@@H]1N(C)c1ncnc2[nH]ccc12` [tofacitinib, reference compound] here?
**A.** no effect

**Q.** And the “STAT5 Y647 phosphorylation caused by IL-2 after JAK inhibitor” value ([1]; EpoRm-CAR T cells, IL-2 100 IU/mL)?
**A.** completely abrogated

**Q.** With “Epo: recombinant human Epo (Thermo Fisher Scientific), glycoprotein cytokine” as the molecule, how does the pSTAT5 levels induced ([1]; EpoRm-CAR T cells, 1 IU/mL of Epo vs 50 IU/mL IL-2) read?
**A.** significantly higher

**Q.** And the “effect of Epo injection on anti-leukemic activity” value [2]?
**A.** did not affect the anti-leukemic activity

B1: EpoR: wild-type human erythropoietin receptor (SEQ ID NO: 2) expressed in T cells by MSCV retroviral transduction (protein)
chain: MDHLGASLWPQVGSLCLLLAGAAWAPPPNLPDPKFESKAALLAARGPEELLCFTERLEDLVCFWEEAASAGVGPGNYSFSYQLEDEPWKLCRLHQAPTARGAVRFWCSLPTADTSSFVPLELRVTAASGAPRYHRVIHINEVVLLDAPVGLVARLADESGHVVLRWLPPPETPMTSHIRYEVDVSAGNGAGSVQRVEILEGRTECVLSNLRGRTRYTFAVRARMAEPSFGGFWSAWSEPVSLLTPSDLDPLILTLSLILVVILVLLTVLALLSHRRALKQKIWPGIPSPESEFEGLFTTHKGNFQLWLYQNDGCLWWSPCTPFTEDPPASLEVLSERCWGTMQAVEPGTDDEGPLLEPVGSEHAQDTYLVLDKWLLPRNPPSEDLPGPGGSVDIVAMDEGSEASSCSSALASKPSPEGASAASFEYTILDPSSQLLRPWTLCPELPPTPPHLKYLYLVVSDSGISTDYSSGDSQGAQGGLSDGPYSNPYENSLIPAAEPLPPSYVACS
**Q.** With B1 as the molecule, how does the Epo binding [3] read?
**A.** could bind Epo

**Q.** And the survival in culture ([4]; Epo 4 IU/mL, absence of exogenous IL-2)?
**A.** supported their survival in culture

**Q.** And the “long-term cell growth of Jurkat cells” value [5]?
**A.** does not adversely affect

B2: EpoRm: truncated mutant Epo receptor, codon 439 TGG (Trp) changed to TAG (stop), SEQ ID NO: 6, expressed in T cells (protein)
chain: MDHLGASLWPQVGSLCLLLAGAAWAPPPNLPDPKFESKAALLAARGPEELLCFTERLEDLVCFWEEAASAGVGPGNYSFSYQLEDEPWKLCRLHQAPTARGAVRFWCSLPTADTSSFVPLELRVTAASGAPRYHRVIHINEVVLLDAPVGLVARLADESGHVVLRWLPPPETPMTSHIRYEVDVSAGNGAGSVQRVEILEGRTECVLSNLRGRTRYTFAVRARMAEPSFGGFWSAWSEPVSLLTPSDLDPLILTLSLILVVILVLLTVLALLSHRRALKQKIWPGIPSPESEFEGLFTTHKGNFQLWLYQNDGCLWWSPCTPFTEDPPASLEVLSERCWGTMQAVEPGTDDEGPLLEPVGSEHAQDTYLVLDKWLLPRNPPSEDLPGPGGSVDIVAMDEGSEASSCSSALASKPSPEGASAASFEYTILDPSSQLLRP
**Q.** Which results are given for B2?
**A.** functionality of EpoRm (pSTAT5) when expressed with CAR ([1]; Epo 10 IU/mL, 15 minutes): maintained; durability of STAT5 phosphorylation ([1]; Epo 10 IU/mL, time course): more durable; recovery of T cells ([4]; 7 days, Epo 10 IU/mL added to IL-2 100 IU/mL vs IL-2, 4 donors): significantly higher; expansion of T cells ([4]; 14 days, IL-2 100 IU/mL with Epo 10 IU/mL): performed better than EpoR cells; cell numbers in culture ([4]; Epo added, absence of IL-2): yielding higher cell numbers; DNA synthesis elicited by Epo [6]: stimulation was higher; long-term cell growth of Jurkat cells [5]: does not adversely affect
